From paper PMC6773797, “Identification and molecular characterization of a psychrophilic GH1 β-glucosidase from the subtropical soil microorganism Exiguobacterium sp. GXG2” (AMB Express, 2019)

Substrate: O=[N+]([O-])c1ccc(O[C@@H]2O[C@H](CO)[C@@H](O)[C@H](O)[C@H]2O)cc1
Test: purified protein
Format: biochemical, Exiguobacterium sp. GXG2
Conditions: pH 7.0, 35 °C, 1–10 mM substrate

B1: BglG (Exiguobacterium sp. GXG2) (protein)
chain: MKMPKDFLFGAASASYQVEGAWNVDGKGVSNWDVFSKIPGKTFEATNGDVAIDHYHRYKEDIGLMAEMGLESYRFSISWPRIFPNGTGEVNEKGLEFYNNVIDECLKHGIVPFVTLYHWDLPQVLEEQGGWRSPETADAFVRFAKTCFEAFGDRVRNWITFNETVIFCSLGYLTGAHPPGITGDAKAYFQTTHNVFVAHARAVEAFKEAGYEGEIGITHVFNPAFSIDEAPENKQAEVHANEYATHWFYDPILKGEYPAYVVKDLEKQGLLPEWTEEELDLLKRTAPLNDFIGLNYYCPQRVMKNDSALVMAGGRENSTGRPGNPSFDGVYKTVLMDDKVYTKWGWEIAPDAFLEGMRMLQARYGDIKIYITENGLGDEDPIVGEEIMDTPRIEYIESHLRAVKRAVEEGINVSGYYAWSVIDLLSWLNGYKKQYGFIYVDHANGLARKKKQSFHWYQEIIATRAAEL
notes: six-histidine tag kept, about 58 kDa on SDS-PAGE; pETBlue-2, E. coli Tuner(DE3)pLacI; Ni-NTA purified
B1 was tested, and the Km was 1100 µM and the kcat was 12.7 s⁻¹.
